In patent publication US20260201039A1 (CENTESSA PHARMACEUTICALS UK, published 2026):

How the values were obtained:
[1] = target: T1, human/cyno recombinant CD28 protein (human (printed as human/cyno), UniProt P10747 19-152); assay: ELISA on coated huCD28, corrected absorbance (A450-570 nm)
T1 construct: Bought recombinant protein; also called human recombinant CD28; human/cyno CD28
Experimental: (§1) For ELISA binding assays, 384 well or 96 well plates were coated with 1 ug/ml and incubated overnight at 4° C., protected from light. Plates were washed twice with PBS/0.05% Tween 20 before blocking with block buffer (3% milk protein in PBS) for 1 hour at room temperature. Next, test agent or controls were loaded and incubated for 1 hour at room temperature. Plates were then washed three times with PBS/0.05% Tween 20. Finally, HRP conjugated secondary antibody, diluted 1/5,000 in block buffer, was added and incubated for 1 hour at room temperature. Plates were again washed three times with PBS/0.05% Tween before addition of TMB substrate and incubation for 6 minutes at room temperature. Subsequently, the reaction was stopped with stop solution. Absorbance was read at 450 nm and 570 nm. Absorbance at 570 nm was subtracted from absorbance at 450 nm for each plate.
To assess the ability of undigested fully intact and MMP12 incubated proteins to interact with CD28, binding ELISAs to recombinant human CD28 domain were carried out. In parallel, purified IgG_001 and IgG_002 proteins were used as positive controls while isotype binding was used as negative control.

[2] = target: human CD28 in its native form displayed on the cell surface (human, UniProt P10747 19-220); assay: cell-based or functional assay
[3] = target: T2, mouse CD28 recombinant protein (mouse, UniProt P31041 20-150, limits assumed); assay: ELISA on coated mouse CD28, absorbance (blank corrected)
T2 construct: Bought recombinant protein
Experimental: as §1

[4] = target: T2, mouse CD28 recombinant protein; assay: SPR (Biacore 8K), CD28 captured on an anti-His surface, Fab as analyte
Experimental: (§2) In order to assess the binding of test Fabs to human or mouse CD28 (Acro Biosystems, Newark, USA), multi-cycle kinetic analysis was performed at 25° C. on a Biacore® 8K (serial no. 2724204) HBS-P+ (Cytiva, Marlborough, USA) supplemented with 0.1% BSA (Sigma, Dorset, UK) was used as running buffer as well as for ligand and analyte dilutions. CD28 proteins were diluted to 1.0 μg/mL in running buffer and at the start of each cycle loaded onto Fc2, of a series S CM5 chip (Cytiva, Marlborough, USA) previously coupled with an anti-His capture antibody (Cytiva, Marlborough, USA) using standard amine chemistry. Ligand was captured at a flow rate of 10 μl/min to give an immobilization level (RL) of ~60 RU. The surface was then allowed to stabilize. Multi-cycle kinetic data was obtained antigens as the analyte injected at a flow rate of 30 μl/min to try and minimize any potential mass transfer effects. A 9 point 2-fold dilution of purified Fab titrated from 0.39 nM to 100 nM was prepared in running buffer for Fab proteins. For each concentration, the association phases were monitored for 240 seconds, and the dissociation phase was measured for 900 seconds. […] Binding was analysed using 1:1 binding analysis due to the high affinity interaction between the antibody and antigen. The data was analysed using a procedure referred to as double referencing. […]

[5] = target: T1, human/cyno recombinant CD28 protein; assay: SPR (Biacore 8K, 25 C), CD28 captured by anti-His antibody, Fab as analyte, 1:1 fit; Fab_001 (CD28 TGN derived sequence)
Experimental: as §2

[6] = target: T1, human/cyno recombinant CD28 protein; assay: SPR (Biacore 8K), CD28 captured on an anti-His surface, Fab as analyte, multi-cycle kinetics, 1:1 fit
Experimental: In order to assess the binding of test Fabs to human or mouse CD28 (Acro Biosystems, Newark, USA), multi-cycle kinetic analysis was performed at 25° C. on a Biacore® 8K (serial no. 2724204) HBS-P+ (Cytiva, Marlborough, USA) supplemented with 0.1% BSA (Sigma, Dorset, UK) was used as running buffer as well as for ligand and analyte dilutions. CD28 proteins were diluted to 1.0 μg/mL in running buffer and at the start of each cycle loaded onto Fc2, of a series S CM5 chip (Cytiva, Marlborough, USA) previously coupled with an anti-His capture antibody (Cytiva, Marlborough, USA) using standard amine chemistry. Ligand was captured at a flow rate of 10 μl/min to give an immobilization level (RL) of ~60 RU. The surface was then allowed to stabilize. Multi-cycle kinetic data was obtained antigens as the analyte injected at a flow rate of 30 μl/min to try and minimize any potential mass transfer effects. A 9 point 2-fold dilution of purified Fab titrated from 0.39 nM to 100 nM was prepared in running buffer for Fab proteins. For each concentration, the association phases were monitored for 240 seconds, and the dissociation phase was measured for 900 seconds. Regeneration of the sensor chip surface was conducted between cycles using 10 mM glycine pH 2.1. Multiple repeats of a blank and of antigen were programmed into the kinetic run, in order to check the stability of both the surface and analyte over the kinetic cycles. The signal from the reference Fc1 (no ligand captured) was subtracted from that of Fc2 to correct for bulk effect and differences in non-specific binding to a reference surface. The signal from each blank run (ligand captured but no antigen) was subtracted to correct for differences in surface stability. Binding was analysed using 1:1 binding analysis due to the high affinity interaction between the antibody and antigen. The data was analysed using a procedure referred to as double referencing. This refers to the process of first subtracting the reference channel response (Fc1) and then subtracting the zero concentration sensorgram to compensate for bulk effects, baseline drift and small differences between the reference and the active channel.

[7] = target: T1, human/cyno recombinant CD28 protein; assay: SPR (Biacore 8K, 25 C), CD28 captured by anti-His antibody, Fab as analyte, 1:1 fit; Fab_002
Experimental: as §2

B1: LPD28-3, intact (bispecific antibody, human IgG1, kappa)
heavy: not shown
light: not shown
chain: SCPPCPAPEAAGAPSVFLFPPKPKDTLMISRTPEVTCVVVDVSHEDPEVKFNWYVDGVEVHNAKTKPREEQYNSTYRVVSVLTVLHQDWLNGKEYKCKVSNKALPAPIEKTISKAKGQPREPQVCTLPPSRDELTKNQVSLSCAVKGFYPSDIAVEWESNGQPENNYKTTPPVLDSDGSFFLVSKLTVDKSRWQQGNVFSCSVMHEALHNHYTQKSLSLSPGK
notes: Asymmetric one arm construct: anti-PD-L1 Fab above anti-CD28-2 Fab; also called undigested LPD28-3; LPD28-3 (0 min)
binding result [1]: binds

B2: IgG_001 (antibody, V domains shown)
VH: QVQLVQSGAEVKKPGASVKVSCKASGYTFTSYYIHWVRQAPGQGLEWIGSIYPGNVNTNYNEKEKDRATLTVDTSISTAYMELSRLRSDDTAVYFCTRSHYGLDWNFDVWGQGTTVTVSS
VL: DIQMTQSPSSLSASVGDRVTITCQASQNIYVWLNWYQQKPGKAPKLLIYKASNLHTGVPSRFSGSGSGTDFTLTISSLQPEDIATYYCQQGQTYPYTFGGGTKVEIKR
notes: also called TGN derived CD28 V domain IgG_001 on IgG1-Fc isotype
mean IL2 secretion, PBMC of 20 donors on plate-coated protein, 72 h [2]: ~2000 pg/mL | binding result [3]: no binding (tested: about 300 nM)

B3: Anti-CD28 Fab-001 (Fab, V domains shown)
VH: QVQLVQSGAEVKKPGASVKVSCKASGYTFTSYYIHWVRQAPGQGLEWIGSIYPGNVNTNYNEKEKDRATLTVDTSISTAYMELSRLRSDDTAVYFCTRSHYGLDWNFDVWGQGTTVTVSS
VL: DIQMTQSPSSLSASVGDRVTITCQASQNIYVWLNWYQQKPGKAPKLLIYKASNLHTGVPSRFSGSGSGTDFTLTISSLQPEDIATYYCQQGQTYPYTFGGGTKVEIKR
notes: Monovalent Fab
binding result [4]: no binding | Kd [5]: 0.59 nM | Kd [6]: 0.593 nM | koff [6]: 0.00027 s⁻¹ | kon [6]: 455000 M⁻¹ s⁻¹

B4: Fab_002 (Fab, V domains shown)
VH: QVQLQQSGAELKKPGASVKVSCKASGYTFTEYIIHWIKLRSGQGLEWIGWFYPGSNDIQYNAQFKGKATLTADKSSSTVYMELTGLTPEDSAVYFCARRDDFSGYDALPYWGQGTLVTVSA
VL: DIQMTQSPSSLSASVGDRVTITCKTNENIYSNLAWYQQKDGKSPQLLIYAATHLVEGVPSRFSGSGSGTQYSLTISSLQPEDFGNYYCQHFWGTPCTFGGGTKLEIKR
notes: also called Anti-CD28-2 Fab
binding result [4]: no binding | Kd [7]: 0.53 nM | Kd [6]: 0.532 nM | koff [6]: 0.000241 s⁻¹ | kon [6]: 454000 M⁻¹ s⁻¹

B5: IgG_002 (antibody, V domains shown)
VH: QVQLQQSGAELKKPGASVKVSCKASGYTFTEYIIHWIKLRSGQGLEWIGWFYPGSNDIQYNAQFKGKATLTADKSSSTVYMELTGLTPEDSAVYFCARRDDFSGYDALPYWGQGTLVTVSA
VL: DIQMTQSPSSLSASVGDRVTITCKTNENIYSNLAWYQQKDGKSPQLLIYAATHLVEGVPSRFSGSGSGTQYSLTISSLQPEDFGNYYCQHFWGTPCTFGGGTKLEIKR
notes: also called non superagonist CD28 IgG
binding result [3]: no binding (tested: about 300 nM)
